Experimental data as given in patent US20200009190A1.

Target: CD200 expressed on FBL leukemia cells transduced with CD200 (CD200+ FBL) (UniProt O54901)
Experiment: cell-based or functional assay

Sequence of CD200 expressed on FBL leukemia cells transduced with CD200 (CD200+ FBL) (O54901 31-278 limits assumed): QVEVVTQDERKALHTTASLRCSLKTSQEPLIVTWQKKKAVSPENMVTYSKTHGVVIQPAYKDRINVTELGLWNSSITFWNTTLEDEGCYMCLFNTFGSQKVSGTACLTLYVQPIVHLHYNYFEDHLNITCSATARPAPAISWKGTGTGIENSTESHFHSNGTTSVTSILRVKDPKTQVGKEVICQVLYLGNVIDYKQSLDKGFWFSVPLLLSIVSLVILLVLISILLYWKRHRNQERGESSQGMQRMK

accumulation of transduced T cells over multiple cycles of stimulation with irradiated CD200+ FBL: 3 fold
fold enrichment, stimulation 3/stimulation 1: 3 fold
percentage of cytokine non-producing cells (flow cytometry): 27%
percentage of polyfunctional cells producing all 3 cytokines (IFNγ, IL-2, TNFα): 22%
Substance: CD200R-9aas-CD28Cys (murine construct V) (from UniProt Q9ES57 26-229; P31041 142-218)
lysis of CD200+ FBL (CFSE-based cytotoxicity assay): 40%
